Test results: patent US20150344570A1 (published 2015)

B1: GpH7-B3 variant S298_14T/GpL16-k0 (antibody, human IgG1, kappa)
heavy: not shown
light: DIVMTQSPLSLPVTPGEPASISCQASESLVHSNRNTYLHWYLQKPGQSPQLLIYKVSNRFSGVPDRFSGSGSGTDFTLKISRVEAEDVGVYYCSQNTHVPPTFGQGTKVEIERTVAAPSVFIFPPSDEQLKSGTASVVCLLNNFYPREAKVQWKVDNALQSGNSQESVTEQDSKDSTYSLSSTLTLSKADYEKHKVYACEVTHQGLSSPVTKSFNRGEC
notes: homodimerized IgG1, mutation in both H chains; also called Ho Ab
B2: GpH7-A5/GpH7-B3 variant P271_02A/GpL16-k0 (antibody, human IgG1, kappa)
heavy 1: not shown
heavy 2: not shown
light: B1 light
notes: heterodimerized IgG1, mutation in one H chain; also called He Ab
B3: GpH7-A5/GpH7-B3 variant E269_08L/GpL16-k0 (antibody, human IgG1, kappa)
heavy 1: not shown
heavy 2: not shown
light: B1 light
notes: as for B2
B4: GpH7-A5/GpH7-B3 variant K326_15Y/GpL16-k0 (antibody, human IgG1, kappa)
heavy 1: not shown
heavy 2: not shown
light: B1 light
notes: as for B2
B5: GpH7-B3 variant S298_19Q/GpL16-k0 (antibody, human IgG1, kappa)
heavy: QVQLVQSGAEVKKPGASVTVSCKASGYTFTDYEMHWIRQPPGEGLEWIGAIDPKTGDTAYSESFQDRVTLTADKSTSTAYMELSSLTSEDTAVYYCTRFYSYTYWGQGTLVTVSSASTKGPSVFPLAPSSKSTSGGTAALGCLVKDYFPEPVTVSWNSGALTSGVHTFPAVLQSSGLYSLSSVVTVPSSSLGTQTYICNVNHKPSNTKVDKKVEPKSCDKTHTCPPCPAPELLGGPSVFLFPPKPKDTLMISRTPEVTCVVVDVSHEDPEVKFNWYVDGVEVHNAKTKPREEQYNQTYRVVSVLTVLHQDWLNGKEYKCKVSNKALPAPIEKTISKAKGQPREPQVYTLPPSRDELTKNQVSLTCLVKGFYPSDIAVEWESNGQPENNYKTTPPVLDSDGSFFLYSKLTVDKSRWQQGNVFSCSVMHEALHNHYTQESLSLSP
light: B1 light
notes: as for B1
B6: GpH7-A5/GpH7-B3 variant A330_08L/GpL16-k0 (antibody, human IgG1, kappa)
heavy 1: not shown
heavy 2: not shown
light: B1 light
notes: as for B2
B7: GpH7-A5/GpH7-B3 variant P271_11K/GpL16-k0 (antibody, human IgG1, kappa)
heavy 1: not shown
heavy 2: not shown
light: B1 light
notes: as for B2
B8: GpH7-A5/GpH7-B3 variant S239_09D/GpL16-k0 (antibody, human IgG1, kappa)
heavy 1: not shown
heavy 2: not shown
light: B1 light
notes: as for B2
B9: GpH7-A5/GpH7-B3 variant K326_14T/GpL16-k0 (antibody, human IgG1, kappa)
heavy 1: not shown
heavy 2: not shown
light: B1 light
notes: as for B2
B10: GpH7-A5/GpH7-B3 variant I336_18N/GpL16-k0 (antibody, human IgG1, kappa)
heavy 1: not shown
heavy 2: not shown
light: B1 light
notes: as for B2
B11: GpH7-A5/GpH7-B3 variant P271_20W/GpL16-k0 (antibody, human IgG1, kappa)
heavy 1: not shown
heavy 2: not shown
light: B1 light
notes: as for B2
B12: GpH7-A5/GpH7-B3 variant A330_09D/GpL16-k0 (antibody, human IgG1, kappa)
heavy 1: not shown
heavy 2: not shown
light: B1 light
notes: as for B2
B13: GpH7-A5/GpH7-B3 variant K326_16H/GpL16-k0 (antibody, human IgG1, kappa)
heavy 1: not shown
heavy 2: not shown
light: B1 light
notes: as for B2
B14: GpH7-B3 variant S324_02A/GpL16-k0 (antibody, human IgG1, kappa)
heavy: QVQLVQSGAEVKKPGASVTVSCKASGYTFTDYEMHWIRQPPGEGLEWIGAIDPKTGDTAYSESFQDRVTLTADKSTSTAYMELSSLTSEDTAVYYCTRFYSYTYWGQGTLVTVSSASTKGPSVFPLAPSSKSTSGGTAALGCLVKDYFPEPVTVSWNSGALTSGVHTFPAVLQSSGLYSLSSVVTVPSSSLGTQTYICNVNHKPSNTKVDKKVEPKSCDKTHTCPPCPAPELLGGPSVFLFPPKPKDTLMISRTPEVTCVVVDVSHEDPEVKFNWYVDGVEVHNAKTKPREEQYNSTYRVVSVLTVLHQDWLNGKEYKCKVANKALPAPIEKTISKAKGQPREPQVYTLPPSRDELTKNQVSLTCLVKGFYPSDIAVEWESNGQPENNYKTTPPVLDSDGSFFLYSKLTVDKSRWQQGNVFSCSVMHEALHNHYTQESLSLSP
light: B1 light
notes: as for B1
B15: GpH7-B3 variant S337_02A/GpL16-k0 (antibody, human IgG1, kappa)
heavy: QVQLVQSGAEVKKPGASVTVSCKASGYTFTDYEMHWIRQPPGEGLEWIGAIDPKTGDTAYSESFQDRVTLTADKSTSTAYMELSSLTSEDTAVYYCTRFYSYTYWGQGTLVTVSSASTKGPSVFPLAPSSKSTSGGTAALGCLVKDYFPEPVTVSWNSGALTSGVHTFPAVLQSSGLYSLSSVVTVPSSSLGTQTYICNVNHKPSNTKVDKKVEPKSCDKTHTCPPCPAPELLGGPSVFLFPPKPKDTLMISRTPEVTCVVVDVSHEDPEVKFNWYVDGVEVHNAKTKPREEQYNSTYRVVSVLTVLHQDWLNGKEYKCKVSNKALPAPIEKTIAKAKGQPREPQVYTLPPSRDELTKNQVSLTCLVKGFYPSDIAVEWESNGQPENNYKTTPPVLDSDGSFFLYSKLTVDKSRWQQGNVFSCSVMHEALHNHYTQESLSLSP
light: B1 light
notes: as for B1
B16: GpH7-B3 variant S298_15Y/GpL16-k0 (antibody, human IgG1, kappa)
heavy: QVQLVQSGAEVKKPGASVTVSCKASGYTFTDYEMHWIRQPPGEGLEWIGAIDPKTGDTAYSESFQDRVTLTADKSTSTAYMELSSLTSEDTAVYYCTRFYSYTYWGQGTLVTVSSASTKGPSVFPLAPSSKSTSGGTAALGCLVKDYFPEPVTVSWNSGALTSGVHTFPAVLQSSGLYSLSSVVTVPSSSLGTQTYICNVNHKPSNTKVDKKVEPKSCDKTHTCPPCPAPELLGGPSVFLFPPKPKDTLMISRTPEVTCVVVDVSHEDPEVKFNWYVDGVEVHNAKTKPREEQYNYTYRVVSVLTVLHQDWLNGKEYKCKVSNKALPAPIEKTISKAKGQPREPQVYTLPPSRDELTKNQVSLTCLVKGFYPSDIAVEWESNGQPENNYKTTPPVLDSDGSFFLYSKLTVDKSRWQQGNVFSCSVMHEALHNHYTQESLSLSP
light: B1 light
notes: as for B1
B17: GpH7-B3 variant S298_18N/GpL16-k0 (antibody, human IgG1, kappa)
heavy: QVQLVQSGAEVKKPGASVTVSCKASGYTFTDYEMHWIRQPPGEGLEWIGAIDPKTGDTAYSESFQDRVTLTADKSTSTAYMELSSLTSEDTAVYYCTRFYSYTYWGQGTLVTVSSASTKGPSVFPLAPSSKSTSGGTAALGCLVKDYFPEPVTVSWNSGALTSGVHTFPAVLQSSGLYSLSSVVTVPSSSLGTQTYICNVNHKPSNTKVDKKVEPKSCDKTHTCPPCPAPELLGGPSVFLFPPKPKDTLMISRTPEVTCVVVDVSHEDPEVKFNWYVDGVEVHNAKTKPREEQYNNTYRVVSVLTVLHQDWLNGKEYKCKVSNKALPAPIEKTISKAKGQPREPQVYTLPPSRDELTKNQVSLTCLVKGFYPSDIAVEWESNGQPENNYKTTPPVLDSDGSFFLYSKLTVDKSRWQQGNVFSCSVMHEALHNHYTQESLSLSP
light: B1 light
notes: as for B1
B18: GpH7-A5/GpH7-B3 variant E333_01G/GpL16-k0 (antibody, human IgG1, kappa)
heavy 1: not shown
heavy 2: not shown
light: B1 light
notes: as for B2
B19: GpH7-B3 variant S324_20W/GpL16-k0 (antibody, human IgG1, kappa)
heavy: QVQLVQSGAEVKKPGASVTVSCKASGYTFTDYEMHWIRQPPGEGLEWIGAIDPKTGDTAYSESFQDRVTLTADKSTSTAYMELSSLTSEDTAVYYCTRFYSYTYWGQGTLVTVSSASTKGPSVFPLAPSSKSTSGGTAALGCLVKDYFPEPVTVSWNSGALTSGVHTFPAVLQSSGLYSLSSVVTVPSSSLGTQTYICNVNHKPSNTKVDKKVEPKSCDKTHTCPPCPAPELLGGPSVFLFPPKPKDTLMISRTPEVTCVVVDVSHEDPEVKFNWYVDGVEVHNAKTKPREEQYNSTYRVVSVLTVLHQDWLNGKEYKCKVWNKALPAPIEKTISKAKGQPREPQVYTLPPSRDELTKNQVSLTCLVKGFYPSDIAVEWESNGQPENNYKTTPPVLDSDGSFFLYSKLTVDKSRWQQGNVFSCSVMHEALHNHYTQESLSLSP
light: B1 light
notes: as for B1
B20: GpH7-B3 variant S298_16H/GpL16-k0 (antibody, human IgG1, kappa)
heavy: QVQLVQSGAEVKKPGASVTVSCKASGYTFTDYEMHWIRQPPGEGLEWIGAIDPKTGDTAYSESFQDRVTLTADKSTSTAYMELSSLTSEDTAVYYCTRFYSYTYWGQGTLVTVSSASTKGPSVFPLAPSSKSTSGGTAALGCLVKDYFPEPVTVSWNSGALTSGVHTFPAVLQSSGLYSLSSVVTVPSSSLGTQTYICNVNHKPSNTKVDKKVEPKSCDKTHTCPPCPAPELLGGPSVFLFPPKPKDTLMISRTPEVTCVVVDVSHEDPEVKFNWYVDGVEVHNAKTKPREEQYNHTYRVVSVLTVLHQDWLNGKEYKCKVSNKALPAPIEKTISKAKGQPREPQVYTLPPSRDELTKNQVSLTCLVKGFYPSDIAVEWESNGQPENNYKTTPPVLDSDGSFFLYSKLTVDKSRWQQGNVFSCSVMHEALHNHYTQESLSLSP
light: B1 light
notes: as for B1
B21: GpH7-A5/GpH7-B3 variant Q295_02A/GpL16-k0 (antibody, human IgG1, kappa)
heavy 1: not shown
heavy 2: not shown
light: B1 light
notes: as for B2
B22: GpH7-A5/GpH7-B3 variant I336_03V/GpL16-k0 (antibody, human IgG1, kappa)
heavy 1: not shown
heavy 2: not shown
light: B1 light
notes: as for B2
B23: GpH7-A5/GpH7-B3 variant P271_12R/GpL16-k0 (antibody, human IgG1, kappa)
heavy 1: not shown
heavy 2: not shown
light: B1 light
notes: as for B2
B24: GpH7-A5/GpH7-B3 variant S267_01G/GpL16-k0 (antibody, human IgG1, kappa)
heavy 1: not shown
heavy 2: not shown
light: B1 light
notes: as for B2
B25: GpH7-A5/GpH7-B3 variant E269_04F/GpL16-k0 (antibody, human IgG1, kappa)
heavy 1: not shown
heavy 2: not shown
light: B1 light
notes: as for B2
B26: GpH7-A5/GpH7-B3 variant Q295_03V/GpL16-k0 (antibody, human IgG1, kappa)
heavy 1: not shown
heavy 2: not shown
light: B1 light
notes: as for B2
B27: GpH7-A5/GpH7-B3 variant P271_04F/GpL16-k0 (antibody, human IgG1, kappa)
heavy 1: not shown
heavy 2: not shown
light: B1 light
notes: as for B2
B28: GpH7-A5/GpH7-B3 variant Q295_07I/GpL16-k0 (antibody, human IgG1, kappa)
heavy 1: not shown
heavy 2: not shown
light: B1 light
notes: as for B2
B29: GpH7-A5/GpH7-B3 variant I336_04F/GpL16-k0 (antibody, human IgG1, kappa)
heavy 1: not shown
heavy 2: not shown
light: B1 light
notes: as for B2
B30: GpH7-A5/GpH7-B3 variant P271_07I/GpL16-k0 (antibody, human IgG1, kappa)
heavy 1: not shown
heavy 2: not shown
light: B1 light
notes: as for B2
B31: GpH7-A5/GpH7-B3 variant P271_13S/GpL16-k0 (antibody, human IgG1, kappa)
heavy 1: not shown
heavy 2: not shown
light: B1 light
notes: as for B2
B32: GpH7-A5/GpH7-B3 variant Q295_13S/GpL16-k0 (antibody, human IgG1, kappa)
heavy 1: not shown
heavy 2: not shown
light: B1 light
notes: as for B2
B33: GpH7-A5/GpH7-B3 variant S267_02A/GpL16-k0 (antibody, human IgG1, kappa)
heavy 1: not shown
heavy 2: not shown
light: B1 light
notes: as for B2
B34: GpH7-A5/GpH7-B3 variant E333_13S/GpL16-k0 (antibody, human IgG1, kappa)
heavy 1: not shown
heavy 2: not shown
light: B1 light
notes: as for B2
B35: GpH7-A5/GpH7-B3 variant Q295_05P/GpL16-k0 (antibody, human IgG1, kappa)
heavy 1: not shown
heavy 2: not shown
light: B1 light
notes: as for B2
B36: GpH7-A5/GpH7-B3 variant G236_20W/GpL16-k0 (antibody, human IgG1, kappa)
heavy 1: not shown
heavy 2: not shown
light: B1 light
notes: as for B2
B37: GpH7-A5/GpH7-B3 variant I336_06M/GpL16-k0 (antibody, human IgG1, kappa)
heavy 1: not shown
heavy 2: not shown
light: B1 light
notes: as for B2
B38: GpH7-B3 variant S324_03V/GpL16-k0 (antibody, human IgG1, kappa)
heavy: not shown
light: B1 light
notes: as for B1
B39: GpH7-A5/GpH7-B3 variant P271_03V/GpL16-k0 (antibody, human IgG1, kappa)
heavy 1: not shown
heavy 2: not shown
light: B1 light
notes: as for B2
B40: GpH7-B3 variant S324_08L/GpL16-k0 (antibody, human IgG1, kappa)
heavy: not shown
light: B1 light
notes: as for B1
B41: GpH7-A5/GpH7-B3 variant A327_09D/GpL16-k0 (antibody, human IgG1, kappa)
heavy 1: not shown
heavy 2: not shown
light: B1 light
notes: as for B2
B42: GpH7-A5/GpH7-B3 variant I336_01G/GpL16-k0 (antibody, human IgG1, kappa)
heavy 1: not shown
heavy 2: not shown
light: B1 light
notes: as for B2
B43: GpH7-A5/GpH7-B3 variant A330_14T/GpL16-k0 (antibody, human IgG1, kappa)
heavy 1: not shown
heavy 2: not shown
light: B1 light
notes: as for B2
B44: GpH7-A5/GpH7-B3 variant S267_09D/GpL16-k0 (antibody, human IgG1, kappa)
heavy 1: not shown
heavy 2: not shown
light: B1 light
notes: as for B2
B45: GpH7-B3 variant S324_19Q/GpL16-k0 (antibody, human IgG1, kappa)
heavy: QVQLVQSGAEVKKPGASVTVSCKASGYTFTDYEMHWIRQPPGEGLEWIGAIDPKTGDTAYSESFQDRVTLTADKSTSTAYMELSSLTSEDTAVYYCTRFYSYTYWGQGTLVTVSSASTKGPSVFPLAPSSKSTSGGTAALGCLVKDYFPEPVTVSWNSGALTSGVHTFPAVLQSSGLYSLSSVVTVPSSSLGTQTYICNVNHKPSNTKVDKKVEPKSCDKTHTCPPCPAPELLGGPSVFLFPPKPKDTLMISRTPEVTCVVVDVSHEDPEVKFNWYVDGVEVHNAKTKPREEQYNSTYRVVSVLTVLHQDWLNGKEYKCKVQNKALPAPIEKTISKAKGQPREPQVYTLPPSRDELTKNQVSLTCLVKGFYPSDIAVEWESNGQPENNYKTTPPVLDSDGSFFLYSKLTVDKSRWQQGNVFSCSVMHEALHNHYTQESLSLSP
light: B1 light
notes: as for B1
B46: GpH7-A5/GpH7-B3 variant I336_02A/GpL16-k0 (antibody, human IgG1, kappa)
heavy 1: not shown
heavy 2: not shown
light: B1 light
notes: as for B2
B47: GpH7-B3 variant S337_03V/GpL16-k0 (antibody, human IgG1, kappa)
heavy: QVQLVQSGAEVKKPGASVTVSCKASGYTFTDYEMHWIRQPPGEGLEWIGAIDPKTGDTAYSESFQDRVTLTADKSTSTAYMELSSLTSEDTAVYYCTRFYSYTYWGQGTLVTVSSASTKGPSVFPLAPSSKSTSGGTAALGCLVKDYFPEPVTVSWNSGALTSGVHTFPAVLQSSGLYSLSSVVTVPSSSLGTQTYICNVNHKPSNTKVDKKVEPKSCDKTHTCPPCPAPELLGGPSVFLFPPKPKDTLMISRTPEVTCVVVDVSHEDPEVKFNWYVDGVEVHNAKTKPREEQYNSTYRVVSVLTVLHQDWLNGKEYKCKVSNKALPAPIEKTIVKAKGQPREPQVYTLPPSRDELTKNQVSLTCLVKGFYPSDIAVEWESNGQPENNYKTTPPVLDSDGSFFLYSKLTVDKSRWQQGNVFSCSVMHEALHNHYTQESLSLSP
light: B1 light
notes: as for B1
B48: GpH7-B3 variant S324_14T/GpL16-k0 (antibody, human IgG1, kappa)
heavy: not shown
light: B1 light
notes: as for B1
B49: GpH7-A5/GpH7-B3 variant P271_06M/GpL16-k0 (antibody, human IgG1, kappa)
heavy 1: not shown
heavy 2: not shown
light: B1 light
notes: as for B2
B50: GpH7-A5/GpH7-B3 variant S239_01G/GpL16-k0 (antibody, human IgG1, kappa)
heavy 1: not shown
heavy 2: not shown
light: B1 light
notes: as for B2
B51: GpH7-A5/GpH7-B3 variant I336_10E/GpL16-k0 (antibody, human IgG1, kappa)
heavy 1: not shown
heavy 2: not shown
light: B1 light
notes: as for B2
B52: GpH7-A5/GpH7-B3 variant Q295_04F/GpL16-k0 (antibody, human IgG1, kappa)
heavy 1: not shown
heavy 2: not shown
light: B1 light
notes: as for B2
B53: GpH7-A5/GpH7-B3 variant E269_15Y/GpL16-k0 (antibody, human IgG1, kappa)
heavy 1: not shown
heavy 2: not shown
light: B1 light
notes: as for B2
B54: GpH7-B3 variant S337_01G/GpL16-k0 (antibody, human IgG1, kappa)
heavy: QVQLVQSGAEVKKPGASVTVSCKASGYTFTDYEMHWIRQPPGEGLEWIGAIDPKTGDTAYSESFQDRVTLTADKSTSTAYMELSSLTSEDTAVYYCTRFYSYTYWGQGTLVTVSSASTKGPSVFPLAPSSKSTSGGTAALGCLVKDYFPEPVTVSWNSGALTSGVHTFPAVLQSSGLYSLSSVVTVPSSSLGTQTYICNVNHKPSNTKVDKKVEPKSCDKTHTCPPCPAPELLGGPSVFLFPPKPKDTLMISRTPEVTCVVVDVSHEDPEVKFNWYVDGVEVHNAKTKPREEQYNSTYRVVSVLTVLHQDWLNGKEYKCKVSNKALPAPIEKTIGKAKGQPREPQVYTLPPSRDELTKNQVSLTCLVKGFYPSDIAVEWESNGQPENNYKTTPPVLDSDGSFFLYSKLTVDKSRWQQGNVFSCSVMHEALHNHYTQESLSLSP
light: B1 light
notes: as for B1
B55: GpH7-A5/GpH7-B3 variant S267_03V/GpL16-k0 (antibody, human IgG1, kappa)
heavy 1: not shown
heavy 2: not shown
light: B1 light
notes: as for B2
B56: GpH7-A5/GpH7-B3 variant K334_10E/GpL16-k0 (antibody, human IgG1, kappa)
heavy 1: not shown
heavy 2: not shown
light: B1 light
notes: as for B2
B57: GpH7-A5/GpH7-B3 variant E269_06M/GpL16-k0 (antibody, human IgG1, kappa)
heavy 1: not shown
heavy 2: not shown
light: B1 light
notes: as for B2
B58: GpH7-A5/GpH7-B3 variant Q295_18N/GpL16-k0 (antibody, human IgG1, kappa)
heavy 1: not shown
heavy 2: not shown
light: B1 light
notes: as for B2
B59: GpH7-A5/GpH7-B3 variant Q295_14T/GpL16-k0 (antibody, human IgG1, kappa)
heavy 1: not shown
heavy 2: not shown
light: B1 light
notes: as for B2

How the values were obtained:
FcγRIa [1] = biological target: T1, FcγRIa (human, UniProt P12314 16-292); experiment: SPR (Biacore), captured antibody, FcγRIa analyte; relative to HoCon Ab GpH7-B3/GpL16-k0 = 100
T1 construct: extracellular domain; soluble extracellular domain with C-terminal His tag, expressed in FreeStyle293 cells; also called FcgRI; FcgRIa
T1 sequence (P12314 16-292): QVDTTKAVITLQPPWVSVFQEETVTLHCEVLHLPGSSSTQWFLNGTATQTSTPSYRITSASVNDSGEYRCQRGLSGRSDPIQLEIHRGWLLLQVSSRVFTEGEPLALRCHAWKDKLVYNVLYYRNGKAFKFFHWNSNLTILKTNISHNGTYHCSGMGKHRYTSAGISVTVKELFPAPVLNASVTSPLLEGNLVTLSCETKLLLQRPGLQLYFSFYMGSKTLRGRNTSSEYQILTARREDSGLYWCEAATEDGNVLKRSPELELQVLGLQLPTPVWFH

FcγRIa [2] = biological target: T1, FcγRIa; experiment: SPR (Biacore), captured antibody, FcγRIa analyte; relative to HeCon Ab GpH7-A5/GpH7-B3/GpL16-k0 = 100

Binder	Ho/Con_1a (FcγRIa [1])	He/Con_1a (FcγRIa [2])
B1	106 % of control	
B2		104 % of control
B3		104 % of control
B4		106 % of control
B5	105 % of control	
B6		107 % of control
B7		103 % of control
B8		101 % of control
B9		104 % of control
B10		108 % of control
B11		103 % of control
B12		109 % of control
B13		103 % of control
B14	103 % of control	
B15	103 % of control	
B16	103 % of control	
B17	104 % of control	
B18		103 % of control
B19	112 % of control	
B20	107 % of control	

Binder	Ho/Con_1a (FcγRIa [1])	He/Con_1a (FcγRIa [2])
B21		104 % of control
B22		105 % of control
B23		102 % of control
B24		103 % of control
B25		103 % of control
B26		104 % of control
B27		102 % of control
B28		103 % of control
B29		106 % of control
B30		102 % of control
B31		102 % of control
B32		102 % of control
B33		109 % of control
B34		103 % of control
B35		103 % of control
B36		105 % of control
B37		108 % of control
B38	103 % of control	
B39		102 % of control
B40	103 % of control	

Binder	Ho/Con_1a (FcγRIa [1])	He/Con_1a (FcγRIa [2])
B41		103 % of control
B42		109 % of control
B43		105 % of control
B44		110 % of control
B45	111 % of control	
B46		106 % of control
B47	105 % of control	
B48	112 % of control	
B49		102 % of control
B50		101 % of control
B51		108 % of control
B52		102 % of control
B53		106 % of control
B54	102 % of control	
B55		106 % of control
B56		110 % of control
B57		104 % of control
B58		102 % of control
B59		103 % of control
